This note sets out measurements from patent publication US20150329642A1 (Genmab, published 2015).

Test [1] deals with T1, cMetECDHis (human, UniProt P08581 25-932, limits assumed, biotinylated in the cross-block ELISA of Example 17).
T1 construct: Expressed in HEK-293F cells; also called soluble cMetECDHis; biotinylated cMetECDHis
The experiment in a line: cross-block ELISA; competitor 035. How it is done:
(§1) First, the optimal coating concentrations of the tested anti-c-Met antibodies and the optimal cMetECDHis concentration were determined. Therefore, ELISA wells were coated overnight at 4° C. with anti-c-Met HuMabs serially diluted in PBS (8 μg/mL in 2-fold dilutions). Next, the ELISA wells were washed with PBST (PBS supplemented with 0.05% Tween-20 [Sigma-Aldrich, Zwijndrecht, The Netherlands]) and blocked for one hour at room temperature (RT) with PBSTC (PBST supplemented 2% [v/v] chicken serum [Gibco, Paisley, Scotland]). Subsequently, the ELISA wells were washed with PBST and incubated for one hour at RT with biotinylated cMetECDHis serially diluted in PBSTC (1 μg/mL in 2-fold dilutions). Unbound biotinylated cMetECDHis was washed away with PBST, and bound biotinylated cMetECDHis was incubated for one hour at RT with 0.1 μg/mL Streptavidin-poly-HRP (Sanquin, Amsterdam, The Netherlands) diluted in PBST.
(§2) ELISA wells were coated with anti-c-Met antibody at a sub-optimal dose as described above. After blocking of the ELISA wells, they were incubated with the predetermined concentration of biotinylated cMetECDHis in the presence of an excess of anti-c-Met antibody. The reaction was developed as described above. Residual binding was expressed as a percentage relative to the binding observed in the absence of competitor antibody.

Test [2] addresses T1, cMetECDHis. The experiment in a line: cross-block ELISA; competitor 181. How it is done: as §1, §2
Test [3] concerns the target T1, cMetECDHis. The test is described as follows: cross-block ELISA; competitor 022. How it is done: as §1, §2
Test [4] deals with T1, cMetECDHis. The test is described as follows: cross-block ELISA; competitor 069. How it is done:
as §1, §2
(In an ELISA, binding on a coated surface is turned into a signal by an enzyme label.)

For test [5], the target named is T1, cMetECDHis. The experiment in a line: cross-block ELISA; competitor G11-HZ. How it is done:
as §1, §2

Test [6] deals with T1, cMetECDHis. The experiment in a line: cross-block ELISA; competitor 005. How it is done:
as §1, §2

For test [7], the target named is T1, cMetECDHis. The experiment in a line: BLI (Octet); antibody captured, cMetECDHis in solution. Summed up: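 Bio-layer interferometry: anti-c-Met IgG immobilized via anti-human Fc sensors, exposed roughly 10 min to 10 μg/mL HEK293-made cMetECDHis, then moved to kinetics buffer for off-rate. Affinity derived with a 1:1 Langmuir model.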
Background: BLI is a label-free optical method that tracks binding on a fibre tip over time.

The target of test [8] is T1, cMetECDHis. The experiment in a line: cross-block ELISA; competitor 098. How it is done:
as §1, §2

In test [9] the target is T1, cMetECDHis. The experiment in a line: cross-block ELISA; competitor 024. How it is done: as §1, §2
Test [10] concerns the target T1, cMetECDHis. The test is described as follows: cross-block ELISA; competitor 5D5. How it is done: as §1, §2
Test [11] deals with T1, cMetECDHis. The experiment in a line: cross-block ELISA; competitor 008. How it is done:
as §1, §2

Test [12] addresses T1, cMetECDHis. The experiment in a line: cross-block ELISA; competitor 062. How it is done:
as §1, §2

The target of test [13] is T1, cMetECDHis. The experiment in a line: cross-block ELISA; competitor 045. How it is done: as §1, §2
Test [14] concerns the target T1, cMetECDHis. The experiment in a line: cross-block ELISA; competitor 006. How it is done: as §1, §2
Test [15] has as its target T1, cMetECDHis. The experiment in a line: cross-block ELISA; competitor 064. How it is done:
as §1, §2

In test [16] the target is T1, cMetECDHis. The test is described as follows: cross-block ELISA; competitor 058. How it is done: as §1, §2
In test [17] the target is T1, cMetECDHis. The test is described as follows: cross-block ELISA; competitor 101. How it is done: as §1, §2

B1: IgG1-1016-069 (antibody, V domains shown)
VH: QVQLVQSGAEVKKPGASVKVSCETSGYTFTSYGISWVRQAPGHGLEWMGWISAYNGYTNYAQKLQGRVTMTTDTSTSTAYMELRSLRSDDTAVYYCARDLRGTNYFDYWGQGTLVTVSS
VL: DIQMTQSPSSVSASVGDRVTITCRASQGISNWLAWFQHKPGKAPKLLIYAASSLLSGVPSRFSGSGSGTDFTLTISSLQPEDFATYYCQQANSFPITFGQGTRLEIK
notes: also called clone 069; TH1016-069
With B1, the “residual binding, % of no competitor” value with cMetECDHis [1] came to 91.7%; with cMetECDHis [2], 6.3%; with cMetECDHis [3] it was 97.8%; in the test with cMetECDHis [4], 2.4%; with cMetECDHis [5], 110%; in the test with cMetECDHis [6] it was 102%. Further, the “residual binding, % of no competitor” value is 12.5% with cMetECDHis [8]; 6.6% with cMetECDHis [9]; 99.4% in the test with cMetECDHis [10]; 102% with cMetECDHis [11]; 2.2% in the test with cMetECDHis [12]; 99.8% in the test with cMetECDHis [13]. Moreover, the “residual binding, % of no competitor” value was found to be 100% in the test with cMetECDHis [14], 2.3% in the test with cMetECDHis [15], 101% in the test with cMetECDHis [16] and 3.9% with cMetECDHis [17]. In addition, binding with cMetECDHis [7] was characterised by a dissociation constant (Kd) of 1.26 nM. Also, the koff with cMetECDHis [7] worked out at 0.000267 s⁻¹. The same molecule yielded an on-rate constant (kon) in the test with cMetECDHis [7] of 212000 M⁻¹ s⁻¹.

B2: anti-c-Met HuMab 181 (IgG1) (antibody, V domains shown)
VH: QVQLVQSGAEVKKPGASVKVSCKASGYTFTSYGISWVRQAPGQGLEWMGWISTYNGYTNYAQKLQGRVTMTTDTSTSTAYMELRSLRSDDTAVYYCARDLRGTAYFDYWGQGTLVTVSS
VL: DIQMTQSPSSVSASVGDRVTITCRASQGISNWLAWYQHKPGKAPKLLIYAASSLLSGVPSRFSGSGSGTDFTLTISSLQPEDFATYYCQQANSFPITFGQGTRLEIK
notes: also called TH1016-181; PC1016-181
Take B2: the “residual binding, % of no competitor” value in the test with cMetECDHis [1] is 96%; with cMetECDHis [2], 3.6%; in the test with cMetECDHis [3], 92.5%; in the test with cMetECDHis [4], 2.2%; in the test with cMetECDHis [5], 98.7%; with cMetECDHis [6], 95.9%. Also, the “residual binding, % of no competitor” value with cMetECDHis [8] came out at 5.1%; with cMetECDHis [9], 4.3%; in the test with cMetECDHis [10] it was 94.2%; with cMetECDHis [11] it was 98.7%; with cMetECDHis [12], 2%; in the test with cMetECDHis [13], 96.8%. Also, the “residual binding, % of no competitor” value with cMetECDHis [14] is 93.7%; with cMetECDHis [15], 2.1%; in the test with cMetECDHis [16], 98.9%; with cMetECDHis [17], 2.4%. Moreover, binding with cMetECDHis [7] was put at a Kd of 2.23 nM. This molecule also registered a koff with cMetECDHis [7] of 0.000531 s⁻¹. The kon with cMetECDHis [7] was 237000 M⁻¹ s⁻¹.

B3: anti-c-Met HuMab 098 (IgG1) (antibody, V domains shown)
VH: QVQLVQSGAEVKKPGASVKVSCKASGYTFTNFGISWVRQAPGQGLEWMGWISAFNGHTDYSQKVQGRVTMTTDTSTSTAYMELRSLRSDDTAVFYCARSHYYGSGSPFDYWGQGTLVTVSS
VL: DIQMTQSPSSLSASVGDRVTITCRASQGISNWLAWYQQKPEKAPKSLIYAASSLQSGVPSRFSGSGSGTDFTLTISSLQPEDFATYYCHQYKSYPWTFGQGTKVEIK
notes: also called TH1016-098; PC1016-098
B3: the “residual binding, % of no competitor” value came to 89.4% with cMetECDHis [1]; 12% with cMetECDHis [2]; 95.8% in the test with cMetECDHis [3]; 3.4% with cMetECDHis [4]; 99.6% with cMetECDHis [5]; 99.6% with cMetECDHis [6]. Also, the “residual binding, % of no competitor” value with cMetECDHis [8] stood at 2.6%; with cMetECDHis [9], 12.9%; with cMetECDHis [10], 94.9%; in the test with cMetECDHis [11] it was 99.8%; in the test with cMetECDHis [12], 8.8%; with cMetECDHis [13], 96.7%. Moreover, the “residual binding, % of no competitor” value was determined as 97.9% with cMetECDHis [14], 9.3% with cMetECDHis [15], 98.6% in the test with cMetECDHis [16] and 4% with cMetECDHis [17]. The molecule also had a Kd with cMetECDHis [7] of 1.82 nM. Further, the koff in the test with cMetECDHis [7] turned out to be 0.000297 s⁻¹. This molecule yielded a kon with cMetECDHis [7] of 164000 M⁻¹ s⁻¹.

B4: anti-c-Met HuMab 101 (IgG1) (antibody, V domains shown)
VH: QVQLVQSGGEVKKPGASVKVSCKASGYTFTRHGITWVRQAPGQGLEWMGWISADNGNTNYAQKFQDRVTMTTDTSTSTAYMELRSLRSDDTAVYFCARVFRYFDWLLPYFDYWGQGTLVTVST
VL: not shown
In the case of B4, the “residual binding, % of no competitor” value with cMetECDHis [1] is 96.7%; with cMetECDHis [2] it was 41.9%; with cMetECDHis [3] it was 90.7%; with cMetECDHis [4], 9.5%; in the test with cMetECDHis [5], 98.3%; with cMetECDHis [6], 91.5%. The “residual binding, % of no competitor” value with cMetECDHis [8] was 9.7%; with cMetECDHis [9], 40.5%; in the test with cMetECDHis [10], 97.2%; in the test with cMetECDHis [11], 94%; with cMetECDHis [12] it was 36.9%; in the test with cMetECDHis [13], 94.7%. In addition, the “residual binding, % of no competitor” value with cMetECDHis [14] was determined as 89.7%; with cMetECDHis [15] it was 37.4%; with cMetECDHis [16] it was 93.1%; with cMetECDHis [17] it was 3.7%. For the same molecule, the Kd in the test with cMetECDHis [7] amounted to 1.27 nM. Further, in the test with cMetECDHis [7], the off-rate constant (koff) turned out to be 0.000214 s⁻¹. Also, the kon with cMetECDHis [7] is 169000 M⁻¹ s⁻¹.

The Kd is a measure of binding affinity in units of concentration. Lower therefore signals higher affinity. As usually defined, the koff is the rate constant with which the complex falls apart. Lower therefore signals a long-lived complex. One may read the kon as the rate constant with which the complex forms.
